From patent publication US20230060040A1, “USE OF TRANSFERRIN, TRANSFERRIN RECEPTOR AND ANTIBODY THEREOF IN PREPARATION OF ANTI-SARS-CoV-2 DRUG” (KUNMING INSTITUTE OF ZOOLOGY, CHINESE ACADEMY OF SCIENCES, priority 2020, published 2023)

Biological target: transferrin receptor on the membrane surface of Vero E6 cells (African green monkey)
Assay: cell-based or functional assay

transferrin (Sigma, catalog number T4382) (from UniProt P02787 20-698) (ligand)
EC50 of inhibition of SARS-CoV-2 infection of Vero E6 cells, calculated by CPE: 125 nM
